Results taken from PMC8357826, “The extracellular chaperone Clusterin enhances Tau aggregate seeding in a cellular model” (Nature Communications, 2021).

Biological target: cysteine-free TauRD (Tau repeat domain, residues 244-371, C291A/P301L/C322A/V337M) (UniProt P10636-8 244-371, C291A | P301L | C322A | V337M)
Experiment: cell-based or functional assay

cysteine-free TauRD (Tau repeat domain, residues 244-371, C291A/P301L/C322A/V337M), sequence (P10636 561-688 C608A/P618L/C639A/V654M): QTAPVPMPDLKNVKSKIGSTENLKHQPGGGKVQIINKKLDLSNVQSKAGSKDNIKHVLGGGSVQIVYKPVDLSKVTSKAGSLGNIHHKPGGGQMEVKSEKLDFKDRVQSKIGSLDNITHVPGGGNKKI

seeding capacity in TauRD-YT cells of the soluble fraction of a TauRD aggregation reaction made without Clu, after adding Clu: ~5 fold
specific seeding activity (FRET-positive TauRD-YT cells per ng TauRD) of the Clu-containing supernatant against the supernatant without Clu: ~40 fold
B1: Clusterin (Clu; apolipoprotein J), recombinant with Strep tag (CluStrep) (natural protein, human)
chain 1: DQTVSDNELQEMSNQGSKYVNKEIQNAVNGVKQIKTLIEKTNEERKTLLSNLEEAKKKKEDALNETRESETKLKELPGVCNETMMALWEECKPCLKQTCMKFYARVCRSGSGLVGRQLEEFLNQSSPFYFWMNGDRIDSLLENDRQQTHMLDVMQDHFSRASSIIDELFQDRFFTREPQDTYHYLPFSLPHRRPHFFFPKSRIVR
chain 2: SLMPFSPYEPLNFHAMFQPFLEMIHEAQQAMDIHFHSPAFQHPPTEFIREGDDDRTVCREIRHNSTGCLRMKDQCDKCREILSVDCSTNNPSQAKLRRELDESLQVAERLTRKYNELLKSYQWKMLNTSSLLEQLNEQFNWVSRLANLTQGEDQYYLRVTTVASHTSDSDVPSGVTEVVVKLFDSDPITVTVPVEVSRKNPKFMETVAEKALQEYRKKHREE
modifications: N-glycosylated | N-glycosylated
